According to patent US20200188479A1 (INTARCIA THERAPEUTICS, published 2020):
Values belong to the binder of their own block, whether it stands above or below them. Ends that are not written are not given here.

Molecular target: fraction V human serum albumin (human, UniProt P02768 25-609)
Test: cell-based or functional assay

Chain of fraction V human serum albumin (P02768 25-609 limits assumed): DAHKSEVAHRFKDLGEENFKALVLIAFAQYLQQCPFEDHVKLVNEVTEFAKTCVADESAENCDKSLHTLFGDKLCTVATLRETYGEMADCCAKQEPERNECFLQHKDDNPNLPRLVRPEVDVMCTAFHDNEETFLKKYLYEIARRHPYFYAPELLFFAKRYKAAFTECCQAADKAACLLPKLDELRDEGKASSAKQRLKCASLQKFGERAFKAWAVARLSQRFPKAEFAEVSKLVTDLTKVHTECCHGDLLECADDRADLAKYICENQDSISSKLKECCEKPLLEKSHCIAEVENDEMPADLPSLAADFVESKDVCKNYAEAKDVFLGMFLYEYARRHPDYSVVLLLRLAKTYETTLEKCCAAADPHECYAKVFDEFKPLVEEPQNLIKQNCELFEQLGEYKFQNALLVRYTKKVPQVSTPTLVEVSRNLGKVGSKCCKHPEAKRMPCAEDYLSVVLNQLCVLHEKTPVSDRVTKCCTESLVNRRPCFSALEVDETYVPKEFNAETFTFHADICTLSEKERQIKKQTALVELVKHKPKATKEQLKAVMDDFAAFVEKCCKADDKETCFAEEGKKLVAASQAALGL

fold decrease in potency shift in 4% vs 0.1% albumin (cAMP accumulation in hGLP1R-expressing CHO-K1 cells): 19.9 fold
reduction in potency in 4% vs 0.1% albumin, relative to the effect observed with GLP-1[7-36]NH2: 36.8 fold
B1: semaglutide (peptide)
peptide: HXEGTFTSDVSSYLEGQAAKEFIAWLVRGRG
modifications: Aib in position 8 (GLP-1 numbering); Lys carries N6-[N-(17-carboxy-1-oxoheptadecyl-L-c-glutamyl[2-(2-aminoethoxy)ethoxy]acetyl[2-(2-aminoethoxy)ethoxy]acetyl] residue (as printed in paragraph 217))

albumin-mediated change in potency for activation of GLP-1 receptors at 4% HSA versus 0.1% HSA: 0.54 fold (×)
potency shift in 4% vs 0.1% albumin (cAMP accumulation in hGLP1R-expressing CHO-K1 cells): 1.8 fold
B2: human GLP-1[7-36]NH2 (peptide)
peptide: HAEGTFTSDVSSYLEGQAAKEFIAWLVKGR-NH2
